Data reported in paper PMC2818519 (Journal of structural biology, 2009).
Blank lines part the entries; values can stand above or below the molecule they belong to.

How the values were obtained:
[1] = molecular target: SUR2A nucleotide binding domain 2 (NBD2, G1301-K1546) (murine); assay: SAXS
[2] = molecular target: the molecule itself; assay: SAXS

stoichiometry N [1]: 8
Molecule: SUR2A nucleotide binding domain 2 (NBD2, G1301-K1546) (domain or fragment)

B1: SUR2A nucleotide binding domain 1 (NBD1, D666-890) (domain or fragment, murine, UniProt P70170-1 666-890, looked up)
chain: DIAIKVTNGYFSWGSGLATLSNIDIRIPTGQLTMIVGQVGCGKSSLLLAILGEMQTLEGKVYWNNVNESEPSFEATRSRSRYSVAYAAQKPWLLNATVEENITFGSPFNRQRYKAVTDACSLQPDIDLLPFGDQTEIGERGINLSGGQRQRICVARALYQNTNIVFLDDPFSALDIHLSDHLMQEGILKFLQDDKRTVVLVTHKLQYLTHADWIIAMKDGSVLRE
stoichiometry N [2]: 8
